For one assay, the target named is DRB*0301 (human, UniProt P01903 26-216). The assay can be described thus: HLA competition binding.
The next assay addresses DRB*0701 (human). Nature of the assay: HLA competition binding.

Among the data in patent US20150051149A1 (published 2015) are IC50 values, retold here.

Turning to MGEVVAATPTSLLIS [N-terminal to BC Loop SEQ ID NO 53], the IC50 (commonly the concentration needed to halve the response being measured) stood at 1000 nM with DRB*0301 and 500 nM with DRB*0701.

For PVQEFTVPGSKSTATISGLK [DE Loop SEQ ID NO 51], the half-maximal inhibitory concentration (IC50) with DRB*0701 is more than 200000 nM. Still for that read-out and setting: with PTSLLISWDAPAVTVRYYRITYG [BC Loop SEQ ID NO 58] the figure was 1000 nM.
